Test results from article PMC4863600.

Biological target: D. radiodurans DNA gyrase holoenzyme (reconstituted from GyrA::6His and 6His::GyrB) (D. radiodurans) (UniProt Q9RT53)

- decatenation of kDNA by DNA gyrase (4 nM) with increasing concentrations of PprA; ratio of minicircles released with PprA over without PprA: 7 fold
B1: PprA::6His protein (natural protein)
chain: MLPLAFLICSGHNKGSMARAKAKDQTDGIYAAFDTLMSTAGVDSQIAALAASEADAGTLDAALTQSLQEAQGRWGLGLHHLRHEARLTDDGDIEILTDGRPSARVSEGFGALAQAYAPMQALDERGLSQWAALGEGYRAPGDLPLAQLKVLIEHARDFETDWSAGRGETFQRVWRKGDTLFVEVARPASAEAALSDAAWDVIASIKDRAFQRELMRRSEKDGMLGALLGARHAGAKANLAQLPEAHFTVQAFVQTLSGAAARNAEEYRAALKTAAAALEEYQGVTTRQLSEVLRHGLRES
